Measured values taken from the supplement of paper PMC10724198.
± gives the standard deviation of the averaged measurements.

System: Saccharomyces cerevisiae
Test: protein stability index of tFT-peptide fusion (C-terminal peptide) (PSI (0-1 scale)); higher = more stable (slower turnover)
Details: temperature: 30 C
Procedure: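 MPS profiling in S. cerevisiae of the yeast C-terminome library: the last 12 aa of each annotated ORF are fused to the C-terminus of a sfGFP-mCherry timer, after a GGGS linker. Cells are FACS-sorted into 8 mCherry/sfGFP bins and deep-sequenced. PSI runs from 0 (unstable) to 1 (stable); wild type and das1Δ backgrounds, two technical replicates each.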

[1] = genetic background: das1 deletion

| Sequence | protein stability index [1] | protein stability index (genetic background: wild type) |
| --- | --- | --- |
| ESDHPTLADNSV [MRL1 C-terminal 12 aa] | 0.6955 ± 0.0041 | 0.6912 ± 0.00095 |
| ESEKELYNATLA [NHP6A C-terminal 12 aa] | 0.697 ± 0.011 | 0.718 ± 0.0079 |
| ESGLQSINESTL [ALY2 C-terminal 12 aa] | 0.7074 ± 0.0047 | 0.706 ± 0.05 |
| ESSAFEYPGGRL [BOI1 C-terminal 12 aa] | 0.7086 ± 0.0049 | 0.69 ± 0.0096 |
| ESTPKDAARSTN [ASF1 C-terminal 12 aa] | 0.69 ± 0.025 | 0.705 ± 0.028 |
| ETNNVFQDAILR [DOC1 C-terminal 12 aa] | 0.698 ± 0.013 | 0.683 ± 0.017 |
| ETPLLYNDTHTP [IES5 C-terminal 12 aa] | 0.696 ± 0.042 | 0.695 ± 0.009 |
| ETYGSKIVYRFS [GAL10 C-terminal 12 aa] | 0.692 ± 0.031 | 0.7035 ± 0.0018 |
| EVAKSLTLQYDV [CNB1 C-terminal 12 aa] | 0.699 ± 0.0073 | 0.68 ± 0.015 |
| EVENDRQIHRML [IDI1 C-terminal 12 aa] | 0.6924 ± 0.0013 | 0.682 ± 0.01 |
| EWSFASSGYKDD [PPN1 C-terminal 12 aa] | 0.7115 ± 0.0032 | 0.794 ± 0.041 |
| FADKIKPTKVAE [MCK1 C-terminal 12 aa] | 0.693 ± 0.015 | 0.691 ± 0.023 |
| FCAAYQGKKNNK [SLN1 C-terminal 12 aa] | 0.696 ± 0.022 | 0.659 ± 0.039 |
| FDIKKANSATLA [TMA46 C-terminal 12 aa] | 0.6584 ± 0.0037 | 0.634 ± 0.019 |
| FELVQPKGRRKH [TSR2 C-terminal 12 aa] | 0.711 ± 0.016 | 0.686 ± 0.058 |
| FFLRSAAVYQPF [YPR197C C-terminal 12 aa] | 0.6949 ± 0.003 | 0.6815 ± 0.0047 |
| FFNISVSTKISF [YER175W-A C-terminal 12 aa] | 0.6797 ± 0.00033 | 0.659 ± 0.04 |
| FFSRVKSFKDPG [HRT3 C-terminal 12 aa] | 0.7153 ± 0.0048 | 0.688 ± 0.022 |
| FHPLFYCSALVF [YIL142C-A C-terminal 12 aa] | 0.256 ± 0.016 | 0.277 ± 0.015 |
| FIEMSLASSFAG [MBR1 C-terminal 12 aa] | 0.713 ± 0.009 | 0.704 ± 0.028 |
| FILELKNICKCT [MOH1 C-terminal 12 aa] | 0.703 ± 0.026 | 0.525 ± 0.046 |

| Sequence | protein stability index [1] | protein stability index (genetic background: wild type) |
| --- | --- | --- |
| FINCSSKYNGLQ [YBR224W C-terminal 12 aa] | 0.687 ± 0.0088 | 0.703 ± 0.019 |
| FKMCPFFISWFL [YBL073W C-terminal 12 aa] | 0.6013 ± 0.0016 | 0.563 ± 0.032 |
| FLDKNKKEQSDS [ECM9 C-terminal 12 aa] | 0.678 ± 0.029 | 0.771 ± 0.08 |
| FLLTASRGIAQF [YBR116C C-terminal 12 aa] | 0.6752 ± 0.0048 | 0.74 ± 0.088 |
| FPCAGSAMGSLT [YMR103C C-terminal 12 aa] | 0.703 ± 0.011 | 0.684 ± 0.01 |
| FPQLNGLLRLQH [YPR014C C-terminal 12 aa] | 0.698 ± 0.015 | 0.681 ± 0.028 |
| FQPLLKKNQVGY [THI3 C-terminal 12 aa] | 0.704 ± 0.028 | 0.693 ± 0.012 |
| FSLLSFISYFLL [YPS6 C-terminal 12 aa] | 0.665 ± 0.053 | 0.379 ± 0.011 |
| FSMLANRITIGL [YJL175W C-terminal 12 aa] | 0.657 ± 0.016 | 0.64 ± 0.014 |
| FSSFKFLDTSYL [CKI1 C-terminal 12 aa] | 0.748 ± 0.0096 | 0.697 ± 0.048 |
| FTPSYIPEPVLL [YOR161W-B C-terminal 12 aa] | 0.671 ± 0.012 | 0.654 ± 0.013 |
| FVAEAYLDEFVY [ARC19 C-terminal 12 aa] | 0.71 ± 0.03 | 0.662 ± 0.02 |
| FVKTIADTLSFS [PRR1 C-terminal 12 aa] | 0.6997 ± 0.0036 | 0.7061 ± 0.0011 |
| FVLPTWAAKELN [SPE3 C-terminal 12 aa] | 0.7195 ± 0.0063 | 0.69 ± 0.03 |
| FYVCYQLYHLVF [DPM1 C-terminal 12 aa] | 0.355 ± 0.012 | 0.347 ± 0.022 |
| GALREVIKLQKQ [SLX9 C-terminal 12 aa] | 0.704 ± 0.035 | 0.656 ± 0.0067 |
| GALVGYTIGAYI [GPI11 C-terminal 12 aa] | 0.666 ± 0.015 | 0.673 ± 0.055 |
| GAPANKRPRRGL [SMD1 C-terminal 12 aa] | 0.737 ± 0.026 | 0.7365 ± 0.0044 |
| GDPIDLKEKKLN [RER2 C-terminal 12 aa] | 0.705 ± 0.031 | 0.196 ± 0.032 |
| GDTLYEEFGISK [ARO8 C-terminal 12 aa] | 0.709 ± 0.0035 | 0.712 ± 0.046 |
| GESSINSSTRHA [CTK2 C-terminal 12 aa] | 0.683 ± 0.015 | 0.6853 ± 0.0058 |

| Sequence | protein stability index [1] | protein stability index (genetic background: wild type) |
| --- | --- | --- |
| GEYLRDEDTLFT [NIP7 C-terminal 12 aa] | 0.727 ± 0.011 | 0.725 ± 0.013 |
| GFRPAGATRFYS [YHR086W-A C-terminal 12 aa] | 0.6965 ± 0.0029 | 0.691 ± 0.016 |
| GGFFKKLAQLLK [MDG1 C-terminal 12 aa] | 0.704 ± 0.015 | 0.719 ± 0.07 |
| GGLHFHGESFAL [FRE8 C-terminal 12 aa] | 0.699 ± 0.0096 | 0.712 ± 0.036 |
| GIGFTNTSKKIA [RCL1 C-terminal 12 aa] | 0.708 ± 0.027 | 0.5373 ± 0.0012 |
| GINLNISYSSGK [ULI1 C-terminal 12 aa] | 0.706 ± 0.012 | 0.681 ± 0.0044 |
| GIPNFKLKVTQI [GAB1 C-terminal 12 aa] | 0.6896 ± 0.0036 | 0.706 ± 0.041 |
| GKDRPSRFNSKK [TEX1 C-terminal 12 aa] | 0.693 ± 0.011 | 0.667 ± 0.038 |
| GKEVRKLRPENQ [ILV5 C-terminal 12 aa] | 0.691 ± 0.014 | 0.654 ± 0.024 |
| GKGKKKMVVLEW [ETR1 C-terminal 12 aa] | 0.692 ± 0.026 | 0.712 ± 0.018 |
| GKRRMNPGPSVQ [RPS30A C-terminal 12 aa] | 0.696 ± 0.0085 | 0.6758 ± 0.0052 |
| GKSHPFHSSDRY [YJL211C C-terminal 12 aa] | 0.6884 ± 0.0033 | 0.699 ± 0.023 |
| GLGDFGDRYYCV [FUR1 C-terminal 12 aa] | 0.7105 ± 0.0059 | 0.697 ± 0.007 |
| GLLRKGLVKRDI [YHR193C-A C-terminal 12 aa] | 0.6883 ± 0.0029 | 0.677 ± 0.033 |
| GLVGQHQGGGSM [RTC5 C-terminal 12 aa] | 0.68 ± 0.0094 | 0.6633 ± 0.0038 |
| GNISLLYSQGRL [RSC6 C-terminal 12 aa] | 0.723 ± 0.013 | 0.714 ± 0.053 |
| GNLSLDWLNLNL [GAT1 C-terminal 12 aa] | 0.735 ± 0.01 | 0.7689 ± 0.0048 |
| GNNKKKRSVKRE [PBN1 C-terminal 12 aa] | 0.688 ± 0.013 | 0.717 ± 0.036 |
| GPEPPRYDEISS [CSR2 C-terminal 12 aa] | 0.705 ± 0.058 | 0.635 ± 0.025 |
| GPSIIMTLYLTL [ARE1 C-terminal 12 aa] | 0.496 ± 0.021 | 0.5045 ± 0.0024 |
| GTFPRNERYYHK [PHA2 C-terminal 12 aa] | 0.71 ± 0.0099 | 0.78 ± 0.021 |

| Sequence | protein stability index [1] | protein stability index (genetic background: wild type) |
| --- | --- | --- |
| GTLVLGTYLLAQ [SHH3 C-terminal 12 aa] | 0.612 ± 0.027 | 0.639 ± 0.037 |
| GVGRIITQPQRY [HUA1 C-terminal 12 aa] | 0.7038 ± 0.0018 | 0.701 ± 0.043 |
| GWYVGRYYRITR [IMD1 C-terminal 12 aa] | 0.714 ± 0.017 | 0.6944 ± 0.0055 |
| GYETAIHYLRMY [TPC1 C-terminal 12 aa] | 0.701 ± 0.013 | 0.3927 ± 0.0037 |
| HAYVIEKLPDVF [FCF1 C-terminal 12 aa] | 0.719 ± 0.0048 | 0.698 ± 0.016 |
| HCLSLCTIQKMI [YOR231C-A C-terminal 12 aa] | 0.7075 ± 0.0048 | 0.159 ± 0.01 |
| HELESINSGGAW [YMR31 C-terminal 12 aa] | 0.702 ± 0.0072 | 0.689 ± 0.0016 |
| HIDIPDFSKWDV [SUL1 C-terminal 12 aa] | 0.7412 ± 0.0047 | 0.718 ± 0.016 |
| HKGSHFYIQLPI [YAL034C-B C-terminal 12 aa] | 0.7079 ± 0.0061 | 0.677 ± 0.0077 |
| HKGSTLDIMSID [QNS1 C-terminal 12 aa] | 0.72 ± 0.0096 | 0.667 ± 0.025 |
| HKSLKLAKKDKK [AGE1 C-terminal 12 aa] | 0.6837 ± 0.0037 | 0.738 ± 0.13 |
| HKVIAVGRIACQ [SKI7 C-terminal 12 aa] | 0.5897 ± 0.0016 | 0.611 ± 0.016 |
| HPRLCVFSCMMI [YJR128W C-terminal 12 aa] | 0.6901 ± 0.0059 | 0.67 ± 0.035 |
| HQVERKAVDIVL [YPR096C C-terminal 12 aa] | 0.691 ± 0.016 | 0.712 ± 0.09 |
| HRDIVSAGSLYL [MTR4 C-terminal 12 aa] | 0.723 ± 0.034 | 0.7 ± 0.036 |
| HTSSKEIDLLSF [ENT3 C-terminal 12 aa] | 0.721 ± 0.026 | 0.7104 ± 0.0067 |
| IAAFVVAVLFAF [PRY3 C-terminal 12 aa] | 0.213 ± 0.012 | 0.205 ± 0.012 |
| ICRVAIWSAERI [CAT5 C-terminal 12 aa] | 0.693 ± 0.015 | 0.658 ± 0.034 |
| IDDINNDKWLVI [PSK1 C-terminal 12 aa] | 0.725 ± 0.001 | 0.688 ± 0.041 |
